In the supplement of paper PMC9170038:

Assays:
MS2 coat protein [1] = assay: apparent KD of MS2 coat protein, switch ON state; designed switch direction (-1 OFF switch, 1 ON switch): 1; higher = weaker reporter binding; details: FMN input: 0 or 200 uM; Eterna round: R93 (includes R88 designs)
How it was run: (§1)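 Values are apparent KD, taken as the median for each design of fits to normalised binding curves from individual clusters. The designed RNA switches were transcribed on-chip from Illumina sequencing clusters and exposed to SNAP-549-labelled MS2 coat protein at twofold increasing amounts from 0.7 or 1.5 nM to 3 µM. Titration used 100 mM Tris-HCl pH 7.5, 80 mM KCl and 4 mM MgCl2, without or with constant ligand.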

MS2 coat protein [2] = assay: apparent KD of MS2 coat protein, switch OFF state (with FMN for OFF switches, without FMN for ON switches); designed switch direction (-1 OFF switch, 1 ON switch): 1; higher = weaker reporter binding; details: FMN input: 0 or 200 uM; Eterna round: R93 (includes R88 designs)
How it was run: as §1

Sequence | apparent KD of MS2 coat protein (MS2 coat protein [1]) [nM] | apparent KD of MS2 coat protein (MS2 coat protein [2]) [nM]
AAUAAACAUGAGGAUCACCCAUGUACCUACCACUAAGGAUAUGGGCGAAUAACAGCUCGGCCAGAAGGUAGAGGUG [Onususer] | 116 | 82.9
AAUACCACUAGCAAGGAUAUCUAAAACGAAACAUGAGGAUCACCCAUGUGACGACCACACGUAUCAGAGAAGGUGCAGGGUGAAU [JR_SS002_Sub306] | 24.2 | 24
AAAAGACAUGAGGAUCACCCAUGUCAAAACGUAGGAGGAUAUGUCGUGAAAAAAGACUUGACAGAAGGCCUGUGUC [SS1 - 36] | 15.8 | 17.1
AAAAAAAAAACUGAGGAUAUCAGGGAUGGUACAUGAGGAUCACCCAUGUUGGCGGGCGAAGAAACUGAGAAGGCAGAAAAAAAAAA [JR_SameState2_Sub4] | 40.4 | 79.6
GAAAAACAUGAGGAUCACCCAUGUAGAAAUAUGGGAGGAUAUACAAAGACGAAAGUCAAGGUAGAAGGCCUAAAAG [Mat - Same State 1 - Eli mod - 25] | 37.5 | 78.8
AAGACACAUGAGGAUCACCCAUGUCAAGAGAGACGAGGAUAUCUGAAUUAAUUAAAUUAAGGAGAAGGCGUGAAAA [Same State of Confusion2] | 23.1 | 58.1
AGAAAUAAAAGACAGGAUAUCCACUCAAAAACAUGAGGAUCACCCAUGUAAAAGAAAAUAAAAUGGGAGAAGGGUCAAAAUAAGA [Jieux modified + C segment V7] | 15.5 | 48.6
UAAUAAUAAACCAAGGAUAUGGAGUAAAGAACAUGAGGAUCACCCAUGUGUAGCGUGGAAUAGUACCAGAAGGUGGAGUGAAAUG [JR_SS002_Sub1003] | 54.1 | 52.3
UAACAGCACAGGUAGGAUAUGUAGGGUGGUACAUGAGGAUCACCCAUGUAUCCACCCUUCGAAAGGCAGAAGGGCCUGUCGCUAC [Velabibe] | 14.6 | 20.4
AACAAUCUAUCUGAGGAUAUCAAGUCAAAGACAUGAGGAUCACCCAUGUGCAGGAAAACUGCAUUUGAGAAGGCAGAUAGAUUGA [SS2: 1108] | 10.3 | 12.1
AGAAAUAAAACGAAGGAUAUCCAAAAUAAAACAUGAGGAUCACCCAUGUAAAAGAAAAUAAAGUGGGAGAAGGUCGAAAAUAAGA [Designing denovo 15] | 12 | 54.4
AAAUAAAUGACUGAGGAUAUAUCGAUGAAAACAUGAGGAUCACCCAUGUGAUAAUAAAAAGGGUGAUAGAAGGUAGUCAACAAAC [Mod 11 of Pariah 4 by Hyphema in Round 1] | 52.1 | 211
AGAAAACAUGAGGAUCACCCAUGUAGAAAUAUGGGAGGAUAUACAAAGACGAAAGUCAAAGUAGAAGGCCUAAAAG [Mat - Same State 1 - Eli mod - 35] | 23.2 | 78.3
AAAAAACAUGAGGAUCACCCAUGUGAGAAUAUGGAAGGAUAUACAAAGACGAAAGUCAAAGUAGAAGGUCUAAAAG [Mat - Same State 1 - Eli mod - D90] | 31.1 | 31.5
AGAAAACAUGAGGAUCACCCAUGUAGAAACAUGGGAGGAUAUACAAAGACGAAAGUCAAAGUAGAAGGCCUAAAAA [Mat - Same State 1 - Mod - D163] | 75.7 | 140
AAAAAACAUGAGGAUCACCCAUGUGAAAAAUUCGCAGGAUAUCCCUUUUUUAAAUGGGAGGGAGAAGGGUGAAAAA [Nob's Hobby 16 - Jieux - Same State 1] | 34.8 | 112

Sequence | apparent KD of MS2 coat protein (MS2 coat protein [1]) [nM] | apparent KD of MS2 coat protein (MS2 coat protein [2]) [nM]
AAAAGACAUGAGGAUCACCCAUGUCAAAACGUAGGAGGAUAUGUAUGGAAACCAUACUGUACAGAAGGCCUUUGUC [SS1 - 77] | 14 | 14.2
AAAGAAUGAAGGCAGGAUAUGUGAAAAAAAACAUGAGGAUCACCCAUGUAAUAAAUGGGUACAAAACAGAAGGGCCAAGAAACAA [SS 2 Tesla 3] | 380 | 700
AAAAAACAUGAGGAUCACCCAUGUCUUCGGACAUGAGGAUAUGUACAGACUUCGGUCUGUACAGAAGGCAUAAAAA [SS1 - 1010] | 221 | 12.6
AAUAAGACUAGCAAGGAUAUCUAAAACGAAACAUGAGGAUCACCCAUGUAACGAGUACACGUAUCAGAGAAGGUGCAGGGUGAAA [JR_SS002_Sub305] | 36.1 | 16.2
AAGAGACAUGAGGAUCACCCAUGUAGGAUUAUGGGAGGAUAUACAAAGACGAGAGUCAGAGUAGAAGGCCUAGGAC [salish99-ss1-132(!)] | 19.3 | 53.8
AGAAAUAAAGGAGAGGAUAUUCAAAAAGGGACAUGAGGAUCACCCAUGUAAAAGAAAAUAAAAUGGGAGAAGGCUCUAAAUAAAG [80%, More Helter Skelter 2] | 49.6 | 47.2
AUAAAACAUGAGGAUCACCCAUGUAGACACAUGGGAGGAUAUACUAGAUCGAAAGAUCUAGUAGAAGGCCUUUGUA [Mat - Same State 1 - JL mod - D93] | 131 | 749
AAAAAACAUGAGGAUCACCCAUGUAAAAAAAUGGGAGGAUAUCUGAAUUAAUUAAAUUAAGGAGAAGGCCUAAAAA [71%, Same state of confusion2, 4] | 26 | 425
AAGAAACAUGAGGAUCACCCAUGUACCCAAAAGGCAGGAUAUGGGAAAGAAAGAAAGAAACCAGAAGGGCCAUGAA [Sogdianus] | 30.1 | 57.1
AUAAAGAAAACACAGGAUAUCCAAAAGAAAACAUGAGGAUCACCCAUGUAAAGAAAAUAAAAAUGGGAGAAGGGUGAAAGAAAUA [Mat - Same State 2 - JL mod - D40] | 34.8 | 109
GGAAAACAUGAGGAUCACCCAUGUGAAAACGUGGGAGGAUAUCCAUGGAAACCAUACUGUGGAGAAGGCCCAUGUC [EteRNA is fun!] | 19.6 | 65.2
AUAAAACAUGAGGAUCACCCAUGUAGAAAUAAGGGAGGAUAUACAAAGACGAAAGUCAAAGUAGAAGGCUCAAAAG [76%, Meechl 5] | 16.8 | 24.3
AUAUAUAUAAGACAGGAUAUCCUAAAGUAAACAUGAGGAUCACCCAUGUAAAGAAAGAAACUCAUGGAGAAGGGUCAAUAUAUAU [Mat - Same State 2 - Tesla mod - D81] | 14.1 | 48.6
AAUAUACAUGAGGAUCACCCAUGUUAGGUGGGACUAGGAUAUCAAAAUAAAUAAAGAACAUGAGAAGGAGUAUAAA [JR_SS001_Sub017] | 75.3 | 178
AUACUGGAGGACAAGGAUAUGUGCUCCACGACAUGAGGAUCACCCAUGUGCGACGUGGUAGUGAAACAGAAGGUGUCCUAUUGUA [Edonisve] | 13.1 | 17.7
GUAUGCAUGAGGUAGGAUAUCCAAAACAAAACAUGAGGAUCACCCAUGUAAACAAACAACAAAUGGGAGAAGGACCACAUGUAUAC [Ex6 sub 5] | 13.1 | 27.1
